Results on three molecules are retold here after paper PMC4033627 (Biochemistry, 2014).

Residue numbers refer to the chain shown, from its start.

For assay [1], the target named is ubiquitin (from a pRSETA plasmid, for isothermal titration calorimetry) (UniProt P0CG48 1-76). Kind of assay: ITC.
Assay [2] concerns the target human ubiquitin (from pGEX-6P1) (human, UniProt P0CG48 1-76). As to the kind of experiment: crystal structure.

B1: catalytic domain of Sst2 (residues 245–435), Sst2^cat (domain or fragment)
chain: AGTFKIHAYTEGGKPLRTIYLPKLLKKVFLDVVKPNTKKNLETCGILCGKLRQNAFFITHLVIPLQEATSDTCGTTDEASLFEFQDKHNLLTLGWIHTHPTQTCFMSSVDLHTHCSYQLMLPEAIAIVMAPSKNTSGIFRLLDPEGLQTIVKCRKPGLFHPHEGKVYTMVAQPGHVREINSKLQVVDLRVK
One may read the Kd as a measure of binding affinity in units of concentration. Consider B1, for which binding in assay [1] was put at a Kd of 10.2 ± 0.6 µM.

B2: Sst2^catE286A (Glu286Ala mutant of the catalytic domain of Sst2) (domain or fragment)
chain: B1 chain with E42A
As to B2, in assay [1], the Kd was determined as 3 ± 0.56 µM.

B3: Sst2^catD354A (Asp354Ala mutant of the catalytic domain of Sst2) (domain or fragment)
chain: B1 chain with D110A
With B3, the binding result in assay [2] is listed as “binds”.
